Molecular target: PSMA2 (subunit of the human 20S proteasome) (human, UniProt P25787 1-234)
Assay: cryo-EM structure

Sequence of PSMA2 (subunit of the human 20S proteasome) (P25787 whole entry): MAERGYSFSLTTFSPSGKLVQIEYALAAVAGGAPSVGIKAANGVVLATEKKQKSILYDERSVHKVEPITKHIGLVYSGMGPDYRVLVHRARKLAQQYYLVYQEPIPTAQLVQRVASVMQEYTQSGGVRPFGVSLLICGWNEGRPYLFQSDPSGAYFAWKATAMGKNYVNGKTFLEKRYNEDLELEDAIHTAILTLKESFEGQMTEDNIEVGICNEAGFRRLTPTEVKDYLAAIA

H-DNDDDLYG-OH [VCP C-terminal HbYX peptide H-DNDDDLYG-OH]
binding result: binds

Source: publication doi:10.1101/2025.04.01.646186 (bioRxiv, 2025)
